Assay results from US20050260210A1 (FACET BIOTECH, published 2005).

B1: IIA1, anti-α5β1 mouse antibody (antibody, mouse IgG1, V domains shown)
VH: QVQLKESGPGLVAPSQSLSITCTISGFSLTDYGVHWVRQPPGKGLEWLVVIWSDGSSTYNSALKSRMTIRKDNSKSQVFLIMNSLQTDDSAMYYCARHGTYYGMTTTGDALDYWGQGTSVTVSS
VL: QIVLTQSPAIMSASLGERVTMTCTASSSVSSNYLHWYQQKPGSAPNLWIYSTSNLASGVPARFSGSGSGTSYSLTISSMEAEDAATYYCHQYLRSPPTFGGGTKLEIK
notes: also called mouse anti-α5β1 antibody
B2: M200, chimeric anti-α5β1 antibody (antibody, IgG4, V domains shown)
VH: QVQLKESGPGLVAPSQSLSITCTISGFSLTDYGVHWVRQPPGKGLEWLVVIWSDGSSTYNSALKSRMTIRKDNSKSQVFLIMNSLQTDDSAMYYCARHGTYYGMTTTGDALDYWGQGTSVTVSS
VL: QIVLTQSPAIMSASLGERVTMTCTASSSVSSNYLHWYQQKPGSAPNLWIYSTSNLASGVPARFSGSGSGTSYSLTISSMEAEDAATYYCHQYLRSPPTFGGGTKLEIK
notes: also called volociximab

Target: T1, mouse α5β1 integrin (mouse, UniProt P11688 45-1053; P09055 21-798)
T1 construct: Named as present on mouse xenograft tumor vasculature
Assay: not described

T1 sequence (P11688 45-1053, chain 1 of 2): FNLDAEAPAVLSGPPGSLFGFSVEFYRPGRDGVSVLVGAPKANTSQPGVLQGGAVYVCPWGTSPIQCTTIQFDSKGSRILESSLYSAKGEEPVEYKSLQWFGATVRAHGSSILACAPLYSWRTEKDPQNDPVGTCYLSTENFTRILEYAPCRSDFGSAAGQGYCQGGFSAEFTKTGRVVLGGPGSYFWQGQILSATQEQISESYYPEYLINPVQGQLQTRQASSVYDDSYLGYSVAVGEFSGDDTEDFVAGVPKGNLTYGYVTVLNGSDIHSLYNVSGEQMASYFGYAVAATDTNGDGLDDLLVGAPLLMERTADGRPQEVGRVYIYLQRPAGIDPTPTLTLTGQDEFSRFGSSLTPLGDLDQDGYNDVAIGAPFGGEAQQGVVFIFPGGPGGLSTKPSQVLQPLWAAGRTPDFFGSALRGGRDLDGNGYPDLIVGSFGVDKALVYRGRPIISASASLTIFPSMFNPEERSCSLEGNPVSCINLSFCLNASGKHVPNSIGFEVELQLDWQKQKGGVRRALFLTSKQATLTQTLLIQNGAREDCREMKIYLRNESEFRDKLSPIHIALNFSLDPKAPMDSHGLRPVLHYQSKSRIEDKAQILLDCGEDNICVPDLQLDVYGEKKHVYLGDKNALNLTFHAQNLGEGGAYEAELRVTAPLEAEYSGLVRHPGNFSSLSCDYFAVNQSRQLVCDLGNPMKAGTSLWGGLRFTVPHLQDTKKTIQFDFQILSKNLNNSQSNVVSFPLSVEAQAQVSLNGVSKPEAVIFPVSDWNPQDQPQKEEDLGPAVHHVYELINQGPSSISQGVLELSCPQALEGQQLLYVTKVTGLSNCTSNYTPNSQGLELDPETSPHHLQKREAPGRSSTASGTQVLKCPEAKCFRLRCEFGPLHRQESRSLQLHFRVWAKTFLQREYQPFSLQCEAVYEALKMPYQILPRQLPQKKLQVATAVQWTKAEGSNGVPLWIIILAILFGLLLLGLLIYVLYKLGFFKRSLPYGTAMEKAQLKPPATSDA
T1 sequence (P09055 21-798, chain 2 of 2): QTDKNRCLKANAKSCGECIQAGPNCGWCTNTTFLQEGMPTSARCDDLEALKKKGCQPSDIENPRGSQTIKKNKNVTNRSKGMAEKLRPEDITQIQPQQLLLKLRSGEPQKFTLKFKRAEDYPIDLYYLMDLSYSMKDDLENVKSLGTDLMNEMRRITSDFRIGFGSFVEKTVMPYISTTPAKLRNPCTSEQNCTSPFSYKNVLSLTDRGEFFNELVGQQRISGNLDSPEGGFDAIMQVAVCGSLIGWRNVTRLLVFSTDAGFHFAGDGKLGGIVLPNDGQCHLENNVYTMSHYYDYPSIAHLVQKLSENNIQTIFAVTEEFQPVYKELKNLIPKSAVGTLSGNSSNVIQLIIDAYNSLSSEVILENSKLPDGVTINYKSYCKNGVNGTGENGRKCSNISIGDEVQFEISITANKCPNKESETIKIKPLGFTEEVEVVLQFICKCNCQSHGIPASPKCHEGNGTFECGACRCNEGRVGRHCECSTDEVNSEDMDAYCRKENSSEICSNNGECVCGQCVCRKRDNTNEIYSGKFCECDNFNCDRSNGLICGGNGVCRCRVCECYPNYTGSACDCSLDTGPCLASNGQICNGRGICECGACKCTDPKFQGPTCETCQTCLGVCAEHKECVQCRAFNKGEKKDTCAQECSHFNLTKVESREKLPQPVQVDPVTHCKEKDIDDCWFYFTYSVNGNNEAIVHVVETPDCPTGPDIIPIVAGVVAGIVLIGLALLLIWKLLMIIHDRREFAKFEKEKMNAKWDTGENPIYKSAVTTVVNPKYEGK

Row | Binder | binding result
1 | B1 | no binding
2 | B2 | no binding
